The values below come from US20200246484.

This data set deals with MMP-responsive peptide (P3), cleavable 'L' form, conjugated to PEG (2, 5 or 10 kD) and attached directly to 13-nm Au nanoparticle SNAs.

Take MMP-9: the “MMP9-mediated cleavage kinetics (fluorescence on release of the N-terminal fluorophore from the Au surface)” value was “decrease in cleavage rates for 5 kD and 10 kD PEG compared to 2 kD PEG”.
